# Patent publication US20030186847A1, “Insulin derivatives and synthesis thereof” (priority 2000, published 2003)
# Where “and” joins values, the source holds several entries; their conditions need not be identical. Identical values can stand only once.
# Tests used:
# [1] = biological target: T1, plasma protein thyroxine binding globulin (TBG) (Homo sapiens, UniProt P05543); test: IAsys optical biosensor kinetic binding to immobilized TBG; settings: control, 500 μg/ml
# T1 sequence (P05543 21-415): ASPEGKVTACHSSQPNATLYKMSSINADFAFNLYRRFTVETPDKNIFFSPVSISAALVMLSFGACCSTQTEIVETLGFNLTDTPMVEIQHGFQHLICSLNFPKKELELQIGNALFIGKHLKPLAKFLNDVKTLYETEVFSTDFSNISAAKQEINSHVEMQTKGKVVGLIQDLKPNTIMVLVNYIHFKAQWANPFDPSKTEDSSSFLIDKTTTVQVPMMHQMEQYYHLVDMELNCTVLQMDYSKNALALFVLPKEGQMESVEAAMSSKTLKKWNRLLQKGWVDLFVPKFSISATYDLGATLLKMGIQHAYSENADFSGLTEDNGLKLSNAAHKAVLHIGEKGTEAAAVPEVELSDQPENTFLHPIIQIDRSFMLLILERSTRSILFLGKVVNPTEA
# Description: The optical bio-sensor IAsys makes it possible to record biomolecular interactions in real time and thus kinetical studies.
# The surface of the cuvette is covered with a carboxymethylated dextran matrix (CMD), to which the plasma protein TBG is immobilized.
# Immobilization of TBG to the carboxymethylated matrix is detected via the change of the resonance angle.
# For the kinetical studies the Thyroid-Insulin conjugates were injected into the microcuvette in dilution series of 200, 300, 400 and 500 μg/ml in HBS/Tween-buffer at 25° C. To test for reproducibility, all measurements were repeated 3 times.
# Determination of “on-rate” constants kon at various ligand concentrations cL allow kon to be plotted against cL according to equation (4). This gives the association rate constant kA from the slope and the dissociation rate constant kD at C2=O. It has, however, to be taken into account that the error of kD becomes too large when kD<0,01 s^−1 (IAsys, METHODS GUIDE).
# The association and dissociation curves of the 3 Thyroid-Insulin-conjugates indicated in Table 3 were analyzed with the program Fast-fit.
# Evaluation of dissociation was also via single phase curve-fitting, for the same reasons as above.
# [2] = biological target: T2, TBG (thyroxine binding globulin) (Homo sapiens, UniProt P05543); test: FPLC binding to THBPs after overnight incubation, IRI by RIA: TBG; settings: TBG 0.238 μM
# T2 sequence (P05543 21-415): T1 sequence (P05543 21-415)
# [3] = biological target: T3, insulin receptors on LPM (Rattus norvegicus, UniProt P15127); test: Equilibrium binding assay: inhibition of [125I]insulin binding to rat liver plasma membrane (LPM); settings: absence of THBPs
# T3 construct: isolate plasma membrane fractions from fresh rat livers; from tissue; host or cells: rat liver plasma membrane (microsomal light fraction)
# Description: Rat liver plasma membrane (LPM) was isolated to be used in equilibrium binding assays as the source of insulin receptors.
# This equilibrium binding assay determines the analogues affinity to the insulin receptors on the LPM, both in the presence and absence of the THBPs. […] The amount of bound tracer was counted in the γ counter after separating the bound and free species by centrifugation.
# For the binding assays performed in the presence THBP, shifts in the binding curves and the changes in ED50s and RPE are described relative to binging of the same analogue in the absence of THBP.
# [4] = test system: normal human serum (TBG, albumin, prealbumin); test: FPLC binding to THBPs after overnight incubation, IRI by RIA: normal human serum; type: in vitro ADME; settings: normal human serum undiluted
# Description: To ascertain the binding of the insulin or the analogue to the thyroid hormone binding proteins (THBPs), they were incubated overnight at 4° C. The bound and unbound species were separated by molecular weight with FPLC.
# Solutions (0.5 ml) of THBPs were prepared in FPLC buffer as follows and then vortexed:
# It was vortexed and incubated at 4° C. for ≈16 hours or overnight. Before FPLC, it was vortexed again, and filtered through a syringe filter of pore size 0.2 μm (Acrodisc® LC13 PVDF from Gelman, UK) to remove bacteria and serum precipitates.
# The fraction tubes (LP3 tubes) were coated with 50 μl 3% (w/v) HSA to prevent the analogues from adsorbing to the tubes' inner surfaces. The fraction size was programmed as 0.50 ml. Immunoreactive insulin in each fraction was assayed with radioimmunoassay on the same day.
# IRI content in each fraction was assayed by RIA.
# FIGS. 3a-d show the elution profiles of the conjugates after overnight incubation with 5% human serum albumin (HSA). […] The calculated % bound and % free values are included in Table 3. Appearances of the THBPS, as detected by UV absorbance on the original chromatogram (which was not sensitive enough to detect the analogues) are also indicated as arrows on the elution profiles. The shadowed box represents the bound fractions; the clear box represents free fractions.
# [5] = test system: primary antibody W12 (polyclonal anti-insulin antibody); test: Double-antibody radioimmunoassay: inhibition of [125I]insulin binding to primary antibody W12; parameters: species or system guinea-pig; settings: standard solutions, RIA
# Description: The assay was calibrated using insulin standards. […] A double dispenser (Dilutrend, Boehringer Corporation London Ltd) was used to add the appropriate volume of buffer and standard or FPLC fractions into the labelled LP3 tubes. The total volume of each tube was 500 μl. In addition, three tubes of NSB (non-specific binding), containing the standardized HSA concentration, were prepared with, Barbitone/HSA(0.2% w/v) and FPLC/Barbitone/HSA buffers. […] The radioactivity in 100 μl of the resulting tracer solution was counted in the γ-counter, and the counts per minute (cpm) should lie between 3000-5000 cpm. ANSA (2 mg/ml) was dissolved in the solution, and it functioned to displace the T4 moieties on the analogues from the THBPs, since the THBP could be shielding the insulin moiety that was to be assayed. Finally, 100 μl of this solution was added to every tube. The primary antibody, [MUT], is a polyclonal, guinea-pig anti-insulin antibody. […] It was diluted to 1:45,000 in Barbitone/HSA(0.2% w/v) buffer, and 100 μl was added to every tube, except the TC and NSB tubes. […] Finally, the samples, together with the TC and NSB tubes, were counted in the γ-counter using a programme for […] ). Double antibody RIA was used to quantify the immunoreactive insulin (IRI) in the FPLC fractions.
# T3 sequence (P15127 27-759 limits assumed): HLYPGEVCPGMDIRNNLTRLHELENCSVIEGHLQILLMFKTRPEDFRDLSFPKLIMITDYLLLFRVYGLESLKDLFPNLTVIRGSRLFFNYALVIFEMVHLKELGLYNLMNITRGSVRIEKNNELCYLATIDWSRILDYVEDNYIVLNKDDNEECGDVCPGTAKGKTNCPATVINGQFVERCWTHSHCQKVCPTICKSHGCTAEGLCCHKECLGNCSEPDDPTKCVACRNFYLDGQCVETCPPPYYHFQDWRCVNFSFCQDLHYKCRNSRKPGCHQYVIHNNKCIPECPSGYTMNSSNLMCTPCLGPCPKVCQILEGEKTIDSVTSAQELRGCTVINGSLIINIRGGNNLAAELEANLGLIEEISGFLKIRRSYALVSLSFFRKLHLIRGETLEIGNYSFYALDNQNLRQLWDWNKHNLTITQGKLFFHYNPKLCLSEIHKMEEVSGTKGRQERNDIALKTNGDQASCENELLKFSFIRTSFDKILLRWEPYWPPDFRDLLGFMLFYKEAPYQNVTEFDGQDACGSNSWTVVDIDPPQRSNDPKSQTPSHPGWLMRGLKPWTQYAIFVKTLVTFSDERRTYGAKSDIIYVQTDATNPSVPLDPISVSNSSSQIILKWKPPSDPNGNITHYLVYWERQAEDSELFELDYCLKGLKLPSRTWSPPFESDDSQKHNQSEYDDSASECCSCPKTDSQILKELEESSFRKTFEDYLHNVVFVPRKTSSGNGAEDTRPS
substance,measurement,setting,value
"H-Ins: unmodified (native, human) insulin used as control and reference",association to immobilized TBG,[1],association cannot be observed
same,Mean % Free (fractions 15.5-25 ml),[2],90.15%
same,Mean % Bound (fractions 5.5-15 ml),[2]; n = 3,9.85% and 9.85 ± 2.14%
same,Mean ED50 ± SEM,[3],8.49 ± 0.69 nM
same,Mean % Free (fractions 15.5-25 ml),[4],98.39%
same,Mean % Bound (fractions 5.5-15 ml),[4]; n = 3,1.61 ± 0.47%
same,"ED50, inhibition of [125I]insulin binding to W12",[5],1.065 nM
